From the nanobody polyreactivity screen of Harvey et al. (2022)

Test: yeast display, Sf9 membrane polyspecificity reagent, FACS + sequencing; frameworks hold sequencing errors
Method in brief: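 Nanobodies came from a synthetic yeast display library in Saccharomyces cerevisiae BJ5465, induced with galactose for 36–48 hours and stained for 1 hour at 4 °C with 10% biotinylated, detergent-solubilized Sf9 membrane reagent. Cells were enriched on streptavidin microbeads and then FACS-sorted, with low and high (top ~1%) gates set on anti-HA fluorescence for expression and streptavidin fluorescence for reagent binding. Each polyreactivity label reflects the gate a clone came from. Genes were amplified by colony PCR, sequenced by MiSeq 2 × 250 and filtered by CDR length.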

Sequence	polyreactivity (PSR sort gate)
QVQLVESGGGLVQAGGSLRLSCASSGRIFGPNAMGWYRQAPGKERELVAAITSGGRTKYADSVKGRFTISRDNAKNTVYLQMNSLKPEDTAVYYCATTAQYYWGQGTQVTVSS	high polyreactivity
QVQLVESGGGLVQAGGSLRLSCASSGRIFHVYAMGWYRQAPGKERELVADITWSGGSTYYADSVKGRFTISRDNAKNTVYLQMNSLKPEDTAVYYCAASVLYGRHYSYGYWGQGTQVTVSS	high polyreactivity
QVQLVESGGGLVQAGGSLRLSCASSGRIFTWYAMGWYRQAPGKERELVATISSGGSTNYADSVKGRFTISRDNAKNTVYLHMNSKKPEDTAVYYCAARRFFYRYYYKSDYWGQGTQVTVSS	high polyreactivity
QVQLVESGGGLVQAGGSLRLSCASSGRIFYPNAMGWYRQAPGIERELVAAISSRGGSTYYADSVKGRFTISRDNAKNTVYLQMNSLKPEDTAVYYCNRVYYTIGYDYWGQGTQVSVSS	high polyreactivity
QVQLVESGGGLVQAGGSLRLSCASSGRISYRNAMGWYRQAPGKERELVAAISSSGDSTYYADAVKGRFTISRDNAKNTVYLQMNSLKPEDTAVYYCAARHSAVYYGYHRYYYWGQGTQVTVSS	high polyreactivity
QVQLVESGGGLVQAGGSLRLSCASSGRIYVYTMGWYRQAPGKERELVATITRSGGSTYYADSVKGRFTISRDNAKNTVYLQMNSLKPEDTAVYYCNAVGRFTPYSSRREYDYWGQGTQVTVSS	low polyreactivity
QVQLVESGGGLVQAGGSLRLSCASSGRTFGTNTMGWYRQAPGKERELVAAISRSGVRTYYADSVKGRFTISRDNAKNTVYLQMKSLKAEDTAVYYCATDYKVHGFDYWGQGTQVSVSS	high polyreactivity
QVQLVESGGGLVQAGGSLRLSCASSGRTFPAYVMGWYREAPGKERDLVAAISRGGSTYYADSVKGRFTISRDNAKNTVYFQMNSLKPEDTAVFYCAARWSYSRYTGNDYSRLGKFYYWGQGTQVTVSS	high polyreactivity
QVQLVESGGGLVQAGGSLRLSCASSGRTFRVNAMVRYRHAPGKERELFAAITYTGGSTYYADSVKGRFTISRDNAKNTVYLQMNSLKPEDTAVYYCAARITSPRASSRGFYYWGQGTQVTVSS	high polyreactivity
QVQLVESGGGLVQAGGSLRLSCASSGRTFWFYTMGWYRQAPGKERELVAAISSGGSTNYADSVKGRFTISRDNAKNTVYLQMNSLKPEDTAVYYCNKPPPNRGRYDYWGQGTQVTVSS	low polyreactivity
QVQLVESGGGLVQAGGSLRLSCASSGRTFYRNAMGWYRQAPGKERELVAAIRGSGSSTYYADSVKGRFTISRDNAKNSVYLQMKSLKQEDTAVYYCAADYINYNGYARYYFWGQGTQVTVSS	high polyreactivity
QVQLVESGGGLVQAGGSLRLSCASSGRTFYRNAMGWYRQAPGKERELVAAITSGGSTYYADSVKGRFTISRDNAKNTVYLQMNSLKPEDNAVYYCAKRIGWVPSRSWTPAFWGQGTQVNVSS	low polyreactivity
QVQLVESGGGLVQAGGSLRLSCASSGRTIGVYAMGWYRQAPGKERELVAAISWSGGTTYYADSVKGRFTISRDNAKNTVYLQMNSLKPEDTAVYYCAADSYTEVDYWGQGTQVTVSS	low polyreactivity
QVQLVESGGGLVQAGGSLRLSCASSGSIFAFNTLGWYRQAPGKERELVAAINSGGSTYYADSVKGRFTISRDNAKNTVYLQMNSLKPEDTAVYYCNARSYGIVVEYDYWGQGTQVTVSS	low polyreactivity
QVQLVESGGGLVQAGGSLRLSCASSGSIFDFNAMGWYRQAPGKERELVATIRYSGGSTYYADSVKGRFTISRDNAKNTVYLQMNSLKPVDTAVYYCAADPDWTHWFAYYYHYGYWGQGTQVTVSS	low polyreactivity
QVQLVESGGGLVQAGGSLRLSCASSGSIFDVNAMGWYRPAPGKERELVAAISQRGTRTYYADSVKGSFTISRDNAKNTVYLQMNSLKPEDTAVYYCNRGGWRQYDSWGQGSQVTVSS	high polyreactivity
QVQLVESGGGLVQAGGSLRLSCASSGSIFLSYTMGWYRKAPGKERELVAAISKRGGSSYYADSVKGRFTISRDNAKNTVYFQMNTLIPEDTAVYYFNADVRYRRRISVTNVYDYWGQGTQVTVSS	high polyreactivity
QVQLVESGGGLVQAGGSLRLSCASSGSIFNTYTMGWYRQAPGKDRELVAAISSGGSTYYADSVKGRFTISRDNAKKTVYLQMNSLKPEDTAVYYCAAYGHSFQIYDYWGQGTHVTVSS	low polyreactivity
QVQLVESGGGLVQAGGSLRLSCASSGSIFRFNVMGWYRQAPGKERELVAAITRGDSTNYADSVKGRFTISRDNAKNTVYLQMNSLKPEDTAVYYCNARLYVPYRYDYWGQGTQVTVSS	low polyreactivity
QVQLVESGGGLVQAGGSLRLSCASSGSIFRRYAMGWYRQATGKERELVAAISSNGGSTYYADSVKGRFTISRDNAKNTVYLQLNSLKPEDTAGYYCNAQVVHYRVSSVITYTIYDYWGQGTQVTVSS	high polyreactivity
QVQLVESGGGLVQAGGSLRLSCASSGSIFSYYAKGWYIQAPGKASQLVADISQSGGTTYYADSVKGRFTISRDNAKNTVYLLKNSLKPEETAVYYCAARAPSSFDTQYYYWGEGTQVTVSS	low polyreactivity
QVQLVESGGGLVQAGGSLRLSCASSGSIFYTYAMGWYRQAPGKERELVAAISRSGGSTYYADSVKGRFTISRDNAKNTVYLQMNSLKPEDTAVYYCAAVSYRGRGYWGQGTQVTVSS	high polyreactivity

Sequence	polyreactivity (PSR sort gate)
QVQLVESGGGLVQAGGSLRLSCASSGSIINRYAMGGYRQAPGKERELVAAITQSGGRTYYADSVKGRFTISRDNAKNTVYLQMNSLKPEDTAVYYCNAVRWYLYDYWGQGTQVTVSS	high polyreactivity
QVQLVESGGGLVQAGGSLRLSCASSGSTFARNAMGWYRQAPGKERELVAAISWRGGSTYYADSVKGRFTISRDNAKNTVYLQKNSLKPEDTAVYYCAADGAYWRGTGYEYWGQGTQVTVSS	high polyreactivity
QVQLVESGGGLVQAGGSLRLSCASSGSTFGINAMGGYREAPGKERELVAAITFISGSTNYADSVKGRFTISRDKAKNTVNLQMNCLKPEDTAVYYCAADSVYYAGYDVDYWGQGTQVTVSS	low polyreactivity
QVQLVESGGGLVQAGGSLRLSCASSGSTFGPYTMGWYTQAPGKERELVATISSGGSTYYADSVKGRFTISRDNAKYTVYLQMKSLKPEDTAVYYCAARYWSIYDYWGQGTQVTVSS	low polyreactivity
QVQLVESGGGLVQAGGSLRLSCASSGSTFLINAMGWYRQAPGKERELVAAISRDGSTNYADSVKGRFTISRDNAKNTVYLQMHSLIPEDTAVYSCAAVPGISVGRQPGYDYDYWGQGTQVTVSS	low polyreactivity
QVQLVESGGGLVQAGGSLRLSCASSGSTFPSYAMGWYRQAPGKERELVAAINSGGGTNYADSVKGRFTISRDNAKNTVYLQMNSLKPEDTAVYYCAAYEGTYFTEVDYWGQGTQVTVSS	low polyreactivity
QVQLVESGGGLVQAGGSLRLSCASSGSTFRKNTMGWYIPAPGKEREFVAAISRSGGSTYYADSVKGRFTISRDNAKNTVYLQMNSLKPEDTAVYYCAASYYPHQYSYELGDYWGQGTQVTVSS	low polyreactivity
QVQLVESGGGLVQAGGSLRLSCASSGSTFSRYALGWYRQAPGKERELVAAITSYGGSTYYADSVKGRFTISRDKAKNTFYLQMNSLKPEYTAVYYCAASYQVRYDYWGQGTQVTVSS	high polyreactivity
QVQLVESGGGLVQAGGSLRLSCASSGSTFTRYAMGWYRQAPGKERELVAAINSSGGRTYYADSVKGRFTISRDNAKNTVYLQMNSLKPEDTAVYYCAATRGRYREDEDYWGQGTQVTVSS	high polyreactivity
QVQLVESGGGLVQAGGSLRLSCASSGSTFWPNAMGWYRQAPGKERELVAAITGGGGTNYADSVKGRFTISRDNAKNTVYLQMNSLKPEDTAVYYCAAKKVNSRSHVKYYYWGQGTQVTVSS	high polyreactivity
QVQLVESGGGLVQAGGSLRLSCASSGSTSYRYAMGWYRQAPGKERELVAAISSSGGSTYYADSVKGRFTISRDNAKNTVYLQMNSLKPEDTAVYYCAARFYSGPGGYTMYYWGQGTQVTVSS	high polyreactivity
QVQLVESGGGLVQAGGSLRLSCASSGTIFKYSAMGWYIQAPGKEREFVAGISWSGGRTYYADSVKGRFTISRDNAKITVYLHMNSLKPEDTAVYYCARVRLTSYGYYSWGQGTQVTVSS	high polyreactivity
QVQLVESGGGLVQAGGSLRLSCASSGTIFSWYTMGRYRQAPGKERELVARITTSGGTTRYADSVKGRFTISRDNAKNTVYFQINSLKPEDTAVYYCAADRSPYWRGYFRYNYWGQGSQVTVSS	high polyreactivity
QVQLVESGGGLVQAGGSLRLSCASSGTLYRYAMGWYIQATGKERELVAAISSNGGSTYYADSVKGRFTISRDNEKNTVYLQMNSLKPEDTAVYYCNALSRRFPLYGFWGQGTQVTVSS	high polyreactivity
QVQLVESGGGLVQAGGSLRLSCASSGTTFQYYAMGSYRQAPGKERELVARISDSSANTYYADSVNGRFTISRDNAMNTVYLQMNSLKPEDTAVYYCAASVPYKFYCVVSVRYEYWGQGTQVTVSS	low polyreactivity
QVQLVESGGGLVQAGGSLRLSCASSGYIITRKAMGWYRQAPGKERELVATISSRGGRTYYADSVKGRFTISRDNAKNTVYLQMNSLKPEDTAVYYCAATPWYRTRTYDYWGQGTQVTVSS	high polyreactivity
QVQLVESGGGLVQAGGSLRLSCASSGYTFTVNAMGWYRQAPGKERELVAAISGSGGSTYYADSVKGRFTISRDNAKNTVYLQMNSLKPEDTAVYYCAADYWYYYWPLDYWGQGTQVTVSS	high polyreactivity
QVQLVESGGGLVQAGGSLRLSCASSVSTVKYAMGWYRQAPGKERELVAAISKSAGRTYYADSVKGRFTISRDNAKNTVYLQMNSLKPVDTAVYYCADRQSYYGDDYWGQCTQVTVSS	high polyreactivity
QVQLVESGGGLVQAGGSLRLSCASTGFTFYRYAMGWYRQARGKERELVAAITRSGSRTYYADSVKGRFTISRDNAKNTVYLQMNSLKPEDTAVYYCNAPRPASTDRRRYNYWGQGTQVTVSS	high polyreactivity
QVQLVESGGGLVQAGGSLRLSCASTGSTFTTYAMGWYRQPPGKERELVAAISSRSTRTYYADSVKGRFTISRDNAKNTVYLQMNSLKPEDTAVYYCAASVPWKYEYWGQGTQVTVSS	high polyreactivity
QVQLVESGGGLVQAGGSLRLSCATSGRTFRFNAMGWYRQAPGKEREFVAAITSGGGTYYADSVKGRFTISRDNAKNTLDLQMNSLKPEDTAVYYCAAPRQYYLMDYWGQGTQVTVSS	low polyreactivity
